Target: FMDV A2001 Argentina capsid protomer (VP0, VP3 and VP1 cut from the polyprotein P12A by protease 3C) (Foot-and-mouth disease virus, serotype A, A2001 Argentina strain)
Experiment: sucrose gradient ultracentrifugation with ELISA of the fractions

FMDV A2001 Argentina capsid protomer (VP0, VP3 and VP1 cut from the polyprotein P12A by protease 3C) (complex)
percent of the antigen present as complete empty capsids (75s): 84%
